In IntAct's records for PubMed 17679699:

B1: Catenin beta-1 (Homo sapiens), P35222 (parent)
chain: MATQADLMELDMAMEPDRKAAVSHWQQQSYLDSGIHSGATTTAPSLSGKGNPEEEDVDTSQVLYEWEQGFSQSFTQEQVADIDGQYAMTRAQRVRAAMFPETLDEGMQIPSTQFDAAHPTNVQRLAEPSQMLKHAVVNLINYQDDAELATRAIPELTKLLNDEDQVVVNKAAVMVHQLSKKEASRHAIMRSPQMVSAIVRTMQNTNDVETARCTAGTLHNLSHHREGLLAIFKSGGIPALVKMLGSPVDSVLFYAITTLHNLLLHQEGAKMAVRLAGGLQKMVALLNKTNVKFLAITTDCLQILAYGNQESKLIILASGGPQALVNIMRTYTYEKLLWTTSRVLKVLSVCSSNKPAIVEAGGMQALGLHLTDPSQRLVQNCLWTLRNLSDAATKQEGMEGLLGTLVQLLGSDDINVVTCAAGILSNLTCNNYKNKMMVCQVGGIEALVRTVLRAGDREDITEPAICALRHLTSRHQEAEMAQNAVRLHYGLPVVVKLLHPPSHWPLIKATVGLIRNLALCPANHAPLREQGAIPRLVQLLVRAHQDTQRRTSMGGTQQQFVEGVRMEEIVEGCTGALHILARDVHNRIVIRGLNTIPLFVQLLYSPIENIQRVAAGVLCELAQDKEAAEAIEAEGATAPLTELLHSRNEGVATYAAAVLFRMSEDKPQDYKKRLSVELTSSLFRTEPMAWNETADLGLDIGAQGEPLGYRQDDPSYRSFHSGGYGQDALGMDPMMEHEMGGHHPGADYPVDGLPDLGHAQDLMDGLPPGDSNQLAWFDTDL
partner: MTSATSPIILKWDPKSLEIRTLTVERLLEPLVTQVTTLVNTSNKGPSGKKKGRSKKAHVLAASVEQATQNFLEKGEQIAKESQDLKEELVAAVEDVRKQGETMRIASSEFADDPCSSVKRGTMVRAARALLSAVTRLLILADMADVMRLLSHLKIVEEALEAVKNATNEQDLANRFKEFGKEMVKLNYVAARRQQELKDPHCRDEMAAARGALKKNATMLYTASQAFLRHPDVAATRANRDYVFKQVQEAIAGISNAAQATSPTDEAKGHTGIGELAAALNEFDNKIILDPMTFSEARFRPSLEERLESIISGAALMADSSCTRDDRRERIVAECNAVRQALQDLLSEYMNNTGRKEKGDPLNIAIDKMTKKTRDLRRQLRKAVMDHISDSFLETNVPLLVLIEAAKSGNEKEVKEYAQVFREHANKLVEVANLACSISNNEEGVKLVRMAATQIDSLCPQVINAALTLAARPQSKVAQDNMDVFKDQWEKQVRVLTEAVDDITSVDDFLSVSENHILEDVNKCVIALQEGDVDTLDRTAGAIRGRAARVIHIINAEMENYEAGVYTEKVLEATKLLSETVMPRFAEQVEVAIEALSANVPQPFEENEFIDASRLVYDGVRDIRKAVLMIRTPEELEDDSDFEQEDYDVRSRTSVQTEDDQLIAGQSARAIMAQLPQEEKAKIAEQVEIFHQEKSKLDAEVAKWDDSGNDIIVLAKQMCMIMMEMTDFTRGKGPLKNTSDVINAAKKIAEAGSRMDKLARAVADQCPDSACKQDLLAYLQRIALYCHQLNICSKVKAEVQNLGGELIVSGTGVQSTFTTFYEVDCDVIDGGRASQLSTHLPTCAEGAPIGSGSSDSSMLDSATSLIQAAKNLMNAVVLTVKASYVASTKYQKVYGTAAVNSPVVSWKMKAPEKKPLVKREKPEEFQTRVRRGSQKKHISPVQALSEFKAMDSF

Variants of: B1
Details: with ctna2_human CTNNA2, P26232

| effect of a mutation on the interaction | Variant |
| --- | --- |
| disrupting interaction strength | L132A |
